This data set deals with T1, IiWRKY34 (Isatis indigotica, UniProt A0A6G8R7I5 1-302).
T1 sequence: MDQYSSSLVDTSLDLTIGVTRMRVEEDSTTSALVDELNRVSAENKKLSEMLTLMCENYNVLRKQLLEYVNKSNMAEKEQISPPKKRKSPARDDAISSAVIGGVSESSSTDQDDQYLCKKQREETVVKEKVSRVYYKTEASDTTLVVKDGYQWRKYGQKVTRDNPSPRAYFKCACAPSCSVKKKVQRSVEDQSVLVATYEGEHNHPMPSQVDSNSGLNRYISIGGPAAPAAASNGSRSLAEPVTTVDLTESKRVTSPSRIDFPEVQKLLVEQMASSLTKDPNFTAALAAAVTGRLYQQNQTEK
Kind of data set: EMSA.

B1: Ii4CL3 promoter mutated W-box probe (Ii4CL3mpF/mpR) (dsDNA)
DNA 1: TCCGATTTTTTTCATAATTAATTTGAAATGTGCGGTTGATTTTTTTCCAA
DNA 2: TTGGAAAAAAATCAACCGCACATTTCAAATTAATTATGAAAAAAATCGGA
In the case of B1, the binding result is reported as “no binding”.

For the origin of these results see paper PMC7745056.
